The results in this text go back to US20210269525A1 (BIOCYTOGEN PHARMACEUTICALS BEIJING, published 2021).

For test [1], the target named is T1, human CD3e (T-cell surface glycoprotein CD3 epsilon chain) (human, UniProt P07766 23-207). In words: cell-based or functional assay.
In test [2] the target is T1, human CD3e (T-cell surface glycoprotein …). In words: flow cytometry, human PBMC, antibody 1 µg/mL, anti-human IgG Fc-Alexa Fluor647 (1:500), anti-hTcRβ-PerCP (1:30). As to the method:
(§1) PBMC cells were collected from a human subject. After being thawed, the cells were cultured for 3-4 hours. The medium was then discarded, and the cells were resuspended in phosphate-buffered saline (PBS). The cell concentration was then adjusted to 2×10⁶/25 μl PBS.
(§2) A 96-well plate was prepared. 25 ul of cell suspension was added to each well. […] The cells and the antibodies were incubated. After centrifuge, the residues were discarded. The samples were washed again. 25 ul of PBS was then added to each well to resuspend cells.
(§3) Anti-human IgG Fc-Alexa Fluror647 (1:500) and anit-hTcRβ PerCP (1:30) were then added to each well. The cells and the antibodies were incubated and then the cells were washed again by PBS. 300 ul of PBS was then added to each well to resuspend the cells. FACS was performed.
For orientation: Flow cytometry measures light scatter and fluorescence of single cells or particles in a stream.

Test [3] deals with T2, monkey CD3e (Macaca fascicularis) on PBMC (Macaca fascicularis, UniProt Q95LI5 22-198).
T2 construct: Target on PBMC from Macaca fascicularis; also called mfCD3e; monkey PBMC
T2 sequence (Q95LI5 22-198 limits assumed): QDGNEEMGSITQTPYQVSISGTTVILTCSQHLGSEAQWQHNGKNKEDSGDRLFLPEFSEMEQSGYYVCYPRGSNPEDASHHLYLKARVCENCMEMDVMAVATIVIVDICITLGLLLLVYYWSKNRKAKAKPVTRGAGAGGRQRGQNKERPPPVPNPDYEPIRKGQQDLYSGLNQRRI
In words: flow cytometry, Macaca fascicularis PBMC, antibody concentration not given, anti-human IgG Fc-Alexa Fluor647 (1:500), anti-hTcRβ-PerCP (1:30). The method, boiled down: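 Cynomolgus PBMC incubated with anti-hCD3 antibodies 15 min at 4° C, washed in PBS. Bound antibody detected with anti-human IgG Fc-Alexa Fluor647 (1:500) plus anti-hTcRβ-PerCP (1:30), 15 min at 4° C, then washed and analysed by flow cytometry.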

Test [4] deals with T1, human CD3e (T-cell surface glycoprotein …). In words: flow cytometry, human PBMC, antibody 0.1 µg/mL, anti-human IgG Fc-Alexa Fluor647 (1:500), anti-hTcRβ-PerCP (1:30). As to the method:
as §1, §2, §3

The target in test [5] is T3, Histidine-tagged human CD3e protein (human, UniProt P07766 23-126).
T3 construct: also called hCD3e-His; not shown: His tag
Nature of the test: SPR (Biacore), human CD3e. In general terms: In SPR one partner is held on a chip, and binding of the other changes the refractive index at the surface.

Test [6] has as its target T1, human CD3e (T-cell surface glycoprotein …). Nature of the test: flow cytometry, human PBMC, antibody 10 µg/mL, anti-human IgG Fc-Alexa Fluor647 (1:500), anti-hTcRβ-PerCP (1:30). As to the method: as §1
A 96-well plate was prepared. 25 ul of cell suspension was added to each well. Anti-hCD3e antibodies with different combinations of humanized 1B1 heavy chain variants and humanized 1B1 light chain variants were diluted to 20 ug/ml (2×) in PBS, and were added to the 96-well plate. The cells and the antibodies were incubated. After centrifuge, the residues were discarded. The samples were washed again. 25 ul of PBS was then added to each well to resuspend cells.
as §3

Test [7] has as its target T4, Cynomolgus CD3 epsilon Protein, His Tag (Acrobiosystems, Cat #CDE-05226) (cynomolgus (Macaca fascicularis), UniProt Q95LI5 22-117).
T4 construct: also called monkey CD3e; not shown: His tag
T4 sequence: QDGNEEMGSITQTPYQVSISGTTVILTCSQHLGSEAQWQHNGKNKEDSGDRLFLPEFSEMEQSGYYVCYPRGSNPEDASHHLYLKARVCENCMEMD
Nature of the test: SPR (Biacore), cynomolgus CD3e His tag. As to the method: The binding affinity of the anti-hCD3e antibodies with monkey CD3e (Cynomolgus CD3 epsilon Protein (SEQ ID NO: 39 AA Gln 22-Asp 117), His Tag, Acrobiosystems, Cat #CDE-05226) were also measured using surface plasmon resonance (SPR) using Biacore (Biacore, INC, Piscataway N.J.) by the methods as described in the examples.

In test [8] the target is T1, human CD3e (T-cell surface glycoprotein …). In words: cell-based or functional assay. This is another data set of the same source.

Numbering of substitutions follows the chain as printed. Read-outs that look alike come from different tables or passages of the source. Bounds are passed on as bounds.

B1: 1B1-H2K2-IgG1-LALA (antibody, V domains shown)
VH: QVQLVQSGAEVKKPGASVKLSCKASGYTFTSYWMHWVRQAPGQGLEWIGNIYPDSGTTNYGEKFKTRVTLTVDTSTSTAYMELSSLRSEDTAVYYCTRDTSGQYYFDYWGQGTLVTVSS
VL: DIVMTQSPDSLAVSAGERVTMNCKSSQSLLNSRTRKNYLAWYQHKPGQSPKLLIYWASTRESGVPDRFSGSGSGTDFTLTISSLQAEDVAVYYCVQSFSLRAFGGGTKVEIK
notes: Humanized; human IgG1 with LALA mutations; also called H2K2 (humanized 1B1)
As to B1, the “EC50, luciferase of Jurkat-Luc-NFAT cells; antibody from supernatant” value (from here on “EC50, luciferase … from supernatant”) in test [1] is more than 5.24 µg/mL. In addition, the “upper left quadrant, percent of cells AF647+ / hTcRβ-PerCP-” value amounted to 10.2% in test [2], 84.5% in test [3], 14.1% in test [4] and 9.49% in test [6]. In addition, the “upper right quadrant, percent of cells AF647+ / hTcRβ-PerCP+” value was 61% in test [2], 11.1% in test [3], 47.1% in test [4] and 63.3% in test [6]. Moreover, the Kd (commonly the equilibrium constant for the complex coming apart) in test [5] was 1.65 nM; in test [7], 6.66 nM. Moreover, the koff (as a rule, a measure of how fast the partners let go of each other) in test [5] was 0.000881 s⁻¹; in test [7] it was 0.000665 s⁻¹. Also, the kon (usually a measure of how fast the partners come together) in test [5] worked out at 535000 M⁻¹ s⁻¹; in test [7], 99800 M⁻¹ s⁻¹.

B2: 1B1-H1K2-IgG1-LALA (antibody, V domains shown)
VH: B1 VH with L20V
VL: B1 VL
notes: Humanized; human IgG1 with LALA mutations; also called H1K2 (humanized 1B1)
For B2, in test [1], the “EC50, luciferase … from supernatant” value was more than 3.08 µg/mL. Besides, the “upper left quadrant, percent of cells AF647+ / hTcRβ-PerCP-” value in test [2] came to 9.83%; in test [3] it was 80.5%; in test [4] it was 11.6%; in test [6] it was 9.94%. In addition, the “upper right quadrant, percent of cells AF647+ / hTcRβ-PerCP+” value in test [2] came out at 62.4%; in test [3], 14.9%; in test [4] it was 58.1%; in test [6], 63.5%. Further, the Kd in test [5] stood at 1.2 nM; in test [7], 7.59 nM. In addition, the koff in test [5] worked out at 0.000669 s⁻¹; in test [7] it was 0.00072 s⁻¹. For the same molecule, the kon in test [5] worked out at 558000 M⁻¹ s⁻¹; in test [7], 94900 M⁻¹ s⁻¹.

B3: 1B1-H1K1-IgG1-LALA (antibody, V domains shown)
VH: B1 VH with L20V
VL: B1 VL with V19A
notes: Humanized; human IgG1 with LALA mutations; also called H1K1 (humanized 1B1)
B3: the “EC50, luciferase … from supernatant” value in test [1] came out at 1.42 µg/mL. Besides, the “upper left quadrant, percent of cells AF647+ / hTcRβ-PerCP-” value came to 12% in test [2], 69.5% in test [3], 11.9% in test [4] and 8.68% in test [6]. For the same molecule, the “upper right quadrant, percent of cells AF647+ / hTcRβ-PerCP+” value in test [2] is 58%; in test [3], 26.2%; in test [4], 54.8%; in test [6] it was 61.6%. The Kd is 1.42 nM in test [5] and 9.51 nM in test [7]. Further, the koff in test [5] was 0.000621 s⁻¹; in test [7], 0.000869 s⁻¹. Also, the kon in test [5] came to 438000 M⁻¹ s⁻¹; in test [7] it was 91400 M⁻¹ s⁻¹.

B4: 1B1-H2K3-IgG1-LALA (antibody, V domains shown)
VH: B1 VH
VL: B1 VL with L84V, V109L
notes: Humanized; human IgG1 with LALA mutations; also called H2K3 (humanized 1B1)
Consider B4, for which the “EC50, luciferase … from supernatant” value in test [1] was more than 16.7 µg/mL. Besides, the “upper left quadrant, percent of cells AF647+ / hTcRβ-PerCP-” value in test [2] came out at 10.4%; in test [3], 88.3%; in test [4], 10.8%; in test [6], 10.9%. In addition, the “upper right quadrant, percent of cells AF647+ / hTcRβ-PerCP+” value was determined as 60.6% in test [2], 8.61% in test [3], 59.1% in test [4] and 61.2% in test [6]. Besides, the Kd came out at 1.01 nM in test [5] and 5.39 nM in test [7]. For the same molecule, the koff in test [5] is 0.000651 s⁻¹; in test [7], 0.000591 s⁻¹. Further, the kon was 644000 M⁻¹ s⁻¹ in test [5] and 110000 M⁻¹ s⁻¹ in test [7].

B5: 1B1-H2K1-IgG1-LALA (antibody, V domains shown)
VH: B1 VH
VL: B1 VL with V19A
notes: Humanized; human IgG1 with LALA mutations; also called H2K1 (humanized 1B1)
As to B5, in test [1], the “EC50, luciferase … from supernatant” value is more than 2.79 µg/mL. The “upper left quadrant, percent of cells AF647+ / hTcRβ-PerCP-” value in test [2] is 10.8%; in test [3], 71%; in test [4] it was 9.82%; in test [6], 8.53%. In addition, the “upper right quadrant, percent of cells AF647+ / hTcRβ-PerCP+” value in test [2] was 61.5%; in test [3] it was 25.6%; in test [4], 59.2%; in test [6] it was 65.4%. The Kd worked out at 1.49 nM in test [5] and 7.03 nM in test [7]. The koff in test [5] came out at 0.000862 s⁻¹; in test [7] it was 0.000999 s⁻¹. The kon in test [5] worked out at 579000 M⁻¹ s⁻¹; in test [7], 142000 M⁻¹ s⁻¹.

B6: 1B1-H1K3-IgG1-LALA (antibody, V domains shown)
VH: B1 VH with L20V
VL: B1 VL with L84V, V109L
notes: Humanized; human IgG1 with LALA mutations; also called H1K3 (humanized 1B1)
B6: the “EC50, luciferase … from supernatant” value in test [1] was more than 6.94 µg/mL. The “upper left quadrant, percent of cells AF647+ / hTcRβ-PerCP-” value in test [2] was 11%; in test [3] it was 83.3%; in test [4], 13.9%; in test [6], 10.5%. The “upper right quadrant, percent of cells AF647+ / hTcRβ-PerCP+” value was determined as 58.6% in test [2], 13.6% in test [3], 50% in test [4] and 60% in test [6]. Moreover, the figures for the Kd in test [5] and in test [7] were 3.28 nM and 4.39 nM, respectively. Besides, the koff in test [5] was found to be 0.00051 s⁻¹; in test [7], 0.000739 s⁻¹. In addition, the figures for the association rate constant (kon) in test [5] and in test [7] were 155000 M⁻¹ s⁻¹ and 169000 M⁻¹ s⁻¹, respectively.

B7: Teplizumab (antibody, V domains shown)
VH: QVQLVQSGGGVVQPGRSLRLSCKASGYTFTRYTMHWVRQAPGKGLEWIGYINPSRGYTNYNQKVKDRFTISRDNSKNTAFLQMDSLRPEDTGVYFCARYYDDHYCLDYWGQGTPVTVSS
VL: DIQMTQSPSSLSASVGDRVTITCSASSSVSYMNWYQQTPGKAPKRWIYDTSKLASGVPSRFSGSGSGTDYTFTISSLQPEDIATYYCQQWSSNPFTFGQGTKLQITR
As to B7, the “EC50, luciferase of Jurkat-Luc-NFAT cells; purified antibody” value was 0.449 µg/mL in test [1] and 0.149 µg/mL in test [8].
